Tests used:
GLA2 = biological target: T1, GLA2
T1 chain: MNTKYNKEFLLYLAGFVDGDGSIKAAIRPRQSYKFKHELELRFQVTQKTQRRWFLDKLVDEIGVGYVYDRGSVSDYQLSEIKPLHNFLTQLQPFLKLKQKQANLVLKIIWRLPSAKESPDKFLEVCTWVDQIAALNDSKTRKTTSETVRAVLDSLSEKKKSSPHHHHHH

MGC2 = biological target: T2, MGC2
T2 chain: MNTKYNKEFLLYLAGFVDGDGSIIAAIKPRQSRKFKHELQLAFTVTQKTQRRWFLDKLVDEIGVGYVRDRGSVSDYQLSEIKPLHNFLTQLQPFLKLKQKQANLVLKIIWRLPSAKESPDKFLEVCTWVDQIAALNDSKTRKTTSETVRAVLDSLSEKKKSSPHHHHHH

LAM2 = biological target: T3, LAM2
T3 chain: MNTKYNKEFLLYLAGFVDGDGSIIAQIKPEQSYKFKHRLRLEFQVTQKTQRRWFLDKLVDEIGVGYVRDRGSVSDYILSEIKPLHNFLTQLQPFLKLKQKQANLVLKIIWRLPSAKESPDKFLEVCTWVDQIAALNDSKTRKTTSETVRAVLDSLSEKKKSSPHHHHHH

MYD2 = biological target: T4, MYD2
T4 chain: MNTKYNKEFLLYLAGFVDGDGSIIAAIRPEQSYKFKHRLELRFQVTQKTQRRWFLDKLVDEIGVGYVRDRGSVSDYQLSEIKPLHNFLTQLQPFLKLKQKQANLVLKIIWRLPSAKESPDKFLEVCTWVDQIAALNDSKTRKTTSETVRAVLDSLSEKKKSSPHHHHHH

CF2 = biological target: T5, CF2
T5 chain: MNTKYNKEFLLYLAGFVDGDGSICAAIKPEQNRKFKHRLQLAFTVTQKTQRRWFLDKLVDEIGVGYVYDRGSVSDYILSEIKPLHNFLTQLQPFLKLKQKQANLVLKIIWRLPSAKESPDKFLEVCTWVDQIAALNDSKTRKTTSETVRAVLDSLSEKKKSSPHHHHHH

CCR2 = biological target: T6, CCR2
T6 chain: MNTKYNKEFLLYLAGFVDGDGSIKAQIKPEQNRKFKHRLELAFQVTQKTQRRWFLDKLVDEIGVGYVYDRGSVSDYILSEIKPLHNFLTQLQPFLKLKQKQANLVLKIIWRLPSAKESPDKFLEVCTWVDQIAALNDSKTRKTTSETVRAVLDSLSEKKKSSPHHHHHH

ACH2 = biological target: T7, ACH2
T7 chain: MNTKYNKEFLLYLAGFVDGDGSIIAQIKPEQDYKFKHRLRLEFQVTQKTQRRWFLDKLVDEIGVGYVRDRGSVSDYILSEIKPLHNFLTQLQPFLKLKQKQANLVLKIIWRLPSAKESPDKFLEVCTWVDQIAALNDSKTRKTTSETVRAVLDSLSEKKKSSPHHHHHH

URA2 = biological target: T8, URA2
T8 chain: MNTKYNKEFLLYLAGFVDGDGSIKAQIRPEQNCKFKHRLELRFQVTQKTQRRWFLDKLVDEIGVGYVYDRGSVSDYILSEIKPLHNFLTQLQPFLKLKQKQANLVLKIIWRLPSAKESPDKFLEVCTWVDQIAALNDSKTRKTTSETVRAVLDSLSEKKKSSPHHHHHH

[1] = biological target: T9, HGH2 (partner of CYP in the CYP/HGH2 heterodimer, the 44th table)
T9 chain: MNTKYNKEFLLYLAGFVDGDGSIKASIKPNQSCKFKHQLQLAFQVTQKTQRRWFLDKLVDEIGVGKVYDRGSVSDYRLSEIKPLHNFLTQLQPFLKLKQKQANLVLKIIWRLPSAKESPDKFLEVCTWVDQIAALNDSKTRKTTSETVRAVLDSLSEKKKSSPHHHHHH

BRP2 = biological target: T10, BRP2
T10 chain: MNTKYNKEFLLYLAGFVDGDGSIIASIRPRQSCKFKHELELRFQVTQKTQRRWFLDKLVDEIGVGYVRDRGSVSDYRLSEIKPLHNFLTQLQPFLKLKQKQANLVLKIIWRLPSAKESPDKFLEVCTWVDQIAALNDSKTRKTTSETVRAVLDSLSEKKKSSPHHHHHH

[2] = biological target: T11, variant of LAM2 in which glutamic acids at positions 8 and 61 were changed to lysine
T11 chain: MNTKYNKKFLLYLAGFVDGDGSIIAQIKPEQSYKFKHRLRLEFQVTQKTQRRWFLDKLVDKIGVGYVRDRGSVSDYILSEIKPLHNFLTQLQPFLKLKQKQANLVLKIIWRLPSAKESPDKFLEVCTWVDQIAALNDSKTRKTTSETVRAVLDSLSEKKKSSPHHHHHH

HGH2 = biological target: T12, HGH2
T12 chain: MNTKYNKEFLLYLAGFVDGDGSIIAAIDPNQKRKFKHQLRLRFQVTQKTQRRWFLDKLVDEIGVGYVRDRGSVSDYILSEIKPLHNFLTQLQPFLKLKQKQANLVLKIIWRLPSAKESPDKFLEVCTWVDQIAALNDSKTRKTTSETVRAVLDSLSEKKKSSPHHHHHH

B1: GLA1 (protein)
chain: MNTKYNKEFLLYLAGFVDGDGSIKAAIKPRQSYKFKHELSLAFQVTQKTQRRWFLDKLVDEIGVGYVYDRGSVSDYQLCEIKPLHNFLTQLQPFLKLKQKQANLVLKIIWRLPSAKESPDKFLEVCTWVDQIAALNDSKTRKTTSETVRAVLDSLSEKKKSSPHHHHHH
Q: B1 was tested. Which “cleavage of a linearized DNA substrate with the intended non-palindromic recognition sequence (SEQ ID NO: 32, Arabidopsis GL2 gene) by the 1:1 mixture” value (GLA2) did it give?
A: each rationally-designed meganuclease heterodimer cleaves its intended DNA site

B2: MGC1 (protein)
chain: MNTKYNKEFLLYLAGFVDGDGSIKAQIKPNQCYKFKHQLQLAFQVTQKTQRRWFLDKLVDEIGVGYVYDRGSVSDYILSEIKPLHNFLTQLQPFLKLKQKQANLVLKIIWRLPSAKESPDKFLEVCTWVDQIAALNDSKTRKTTSETVRAVLDSLSEKKKSSPHHHHHH
Q: Which “cleavage of a linearized DNA substrate with the intended non-palindromic recognition sequence (SEQ ID NO: 34, Nicotiana tabacum Magnesium Chelatase gene) by the 1:1 mixture” value (MGC2) does the source give for B2 here?
A: each rationally-designed meganuclease heterodimer cleaves its intended DNA site

B3: LAM1 (protein)
chain: MNTKYNKEFLLYLAGFVDGDGSIIAQIDPRQCRKFKHELRLRFQVTQKTQRRWFLDKLVDEIGVGYVRDRGSVSDYILSEIKPLHNFLTQLQPFLKLKQKQANLVLKIIWRLPSAKESPDKFLEVCTWVDQIAALNDSKTRKTTSETVRAVLDSLSEKKKSSPHHHHHH
Q: B3 was tested. Which “cleavage of the non-palindromic LAM1/LAM2 hybrid DNA site (SEQ ID NO: 22) by enzymes co-expressed from an operon in E. coli” value (LAM2) did it give?
A: The co-expressed enzyme mixture was found to cleave all three sites, including the LAM1/LAM2 hybrid site

Q: And the “cleavage of the non-palindromic LAM1/LAM2 hybrid DNA site (SEQ ID NO: 22) by purified enzymes mixed 1:1 and incubated at 42 C for 20 minutes” value (LAM2)?
A: The 1:1 mixture of LAM1 and LAM2, however, cleaves all three DNA sites

B4: MYD1 (protein)
chain: MNTKYNKEFLLYLAGFVDGDGSIIAQIRPRQSYKFKHELELAFQVTQKTQRRWFLDKLVDEIGVGKVRDRGSVSDYELSEIKPLHNFLTQLQPFLKLKQKQANLVLKIIWRLPSAKESPDKFLEVCTWVDQIAALNDSKTRKTTSETVRAVLDSLSEKKKSSPHHHHHH
Q: Which “cleavage of a linearized DNA substrate with the intended non-palindromic recognition sequence (SEQ ID NO: 27, human DM kinase gene) by the 1:1 mixture” value (MYD2) does the source give for B4 here?
A: each rationally-designed meganuclease heterodimer cleaves its intended DNA site

B5: CF1 (protein)
chain: MNTKYNKEFLLYLAGFVDGDGSICAQIKPNQSYKFKHQLQLAFQVTQKTQRRWFLDKLVDEIGVGYVHDRGSVSDYILSEIKPLHNFLTQLQPFLKLKQKQANLVLKIIWRLPSAKESPDKFLEVCTWVDQIAALNDSKTRKTTSETVRAVLDSLSEKKKSSPHHHHHH
Q: For B5, which “cleavage of a linearized DNA substrate with the intended non-palindromic recognition sequence (SEQ ID NO: 25, human CFTR deltaF508 allele) by the 1:1 mixture” value (CF2) is on record?
A: each rationally-designed meganuclease heterodimer cleaves its intended DNA site

B6: CCR1 (protein)
chain: MNTKYNKEFLLYLAGFVDGDGSIKAQIRPRQNYKFKHELELEFQVTQKTQRRWFLDKLVDEIGVGYVYDRGSVSDYILSEIKPLHNFLTQLQPFLKLKQKQANLVLKIIWRLPSAKESPDKFLEVCTWVDQIAALNDSKTRKTTSETVRAVLDSLSEKKKSSPHHHHHH
Q: B6 was tested. Which “cleavage of a linearized DNA substrate with the intended non-palindromic recognition sequence (SEQ ID NO: 26, human CCR5 gene) by the 1:1 mixture” value (CCR2) did it give?
A: each rationally-designed meganuclease heterodimer cleaves its intended DNA site

B7: ACH1 (protein)
chain: MNTKYNKEFLLYLAGFVDGDGSIIAAIDPEQDCKFKHRLRLRFQVTQKTQRRWFLDKLVDEIGVGYVRDRGSVSDYQLSEIKPLHNFLTQLQPFLKLKQKQANLVLKIIWRLPSAKESPDKFLEVCTWVDQIAALNDSKTRKTTSETVRAVLDSLSEKKKSSPHHHHHH
Q: Which “cleavage of a linearized DNA substrate with the intended non-palindromic recognition sequence (SEQ ID NO: 23, human FGFR3 gene) by the 1:1 mixture” value (ACH2) does the source give for B7 here?
A: each rationally-designed meganuclease heterodimer cleaves its intended DNA site

B8: URA1 (protein)
chain: MNTKYNKEFLLYLAGFVDGDGSIIAQIKPNQSCKFKHQLRLAFTVTQKTQRRWFLDKLVDEIGVGYVRDRGSVSDYILSEIKPLHNFLTQLQPFLKLKQKQANLVLKIIWRLPSAKESPDKFLEVCTWVDQIAALNDSKTRKTTSETVRAVLDSLSEKKKSSPHHHHHH
Q: For B8, which “cleavage of a linearized DNA substrate with the intended non-palindromic recognition sequence (SEQ ID NO: 36, Saccharomyces cerevisiae URA3 gene) by the 1:1 mixture” value (URA2) is on record?
A: each rationally-designed meganuclease heterodimer cleaves its intended DNA site

B9: CYP (protein)
chain: MNTKYNKEFLLYLAGFVDGDGSIIAAIKPNQDYKFKHQLRLAFQVTQKTQRRWFLDKLVDEIGVGYVYDRGSVSDYQLSEIKPLHNFLTQLQPFLKLKQKQANLVLKIIWRLPSAKESPDKFLEVCTWVDQIAALNDSKTRKTTSETVRAVLDSLSEKKKSSPHHHHHH
Q: For B9, which “cleavage of a linearized DNA substrate with the intended non-palindromic recognition sequence (SEQ ID NO: 35, Nicotiana tabacum CYP82E4 gene) by the 1:1 mixture” value [1] is on record?
A: each rationally-designed meganuclease heterodimer cleaves its intended DNA site

B10: BRP1 (protein)
chain: MNTKYNKEFLLYLAGFVDGDGSIKAQIRPRQCRKFKHELELAFQVTQKTQRRWFLDKLVDEIGVGKVYDRGSVSDYELSEIKPLHNFLTQLQPFLKLKQKQANLVLKIIWRLPSAKESPDKFLEVCTWVDQIAALNDSKTRKTTSETVRAVLDSLSEKKKSSPHHHHHH
Q: Which “cleavage of a linearized DNA substrate with the intended non-palindromic recognition sequence (SEQ ID NO: 33, Arabidopsis BP1 gene) by the 1:1 mixture” value (BRP2) does the source give for B10 here?
A: each rationally-designed meganuclease heterodimer cleaves its intended DNA site

B11: variant of the LAM1 enzyme in which lysines at positions 7, 57, and 96 were changed to glutamic acids (protein)
chain: MNTKYNEEFLLYLAGFVDGDGSIIAQIDPRQCRKFKHELRLRFQVTQKTQRRWFLDELVDEIGVGYVRDRGSVSDYILSEIKPLHNFLTQLQPFLELKQKQANLVLKIIWRLPSAKESPDKFLEVCTWVDQIAALNDSKTRKTTSETVRAVLDSLSEKKKSSPHHHHHH
Q: Which “cleavage of the LAM1/LAM2 hybrid DNA site against the two palindromic sites by co-expressed interface variants” value [2] does the source give for B11 here?
A: the LAM1/LAM2 hybrid site was found to be cleaved preferentially over the two palindromic sites

B12: HGH1 (protein)
chain: MNTKYNKEFLLYLAGFVDGDGSIIAQIDPNQDCKFKHQLRLRFQVTQKTQRRWFLDKLVDEIGVGYVRDRGSVSDYILSEIKPLHNFLTQLQPFLKLKQKQANLVLKIIWRLPSAKESPDKFLEVCTWVDQIAALNDSKTRKTTSETVRAVLDSLSEKKKSSPHHHHHH
Q: With B12 as the protein, how does the “cleavage of a linearized DNA substrate with the intended non-palindromic recognition sequence (SEQ ID NO: 24, Human Growth Hormone promoter) by the 1:1 mixture” value (HGH2) read?
A: each rationally-designed meganuclease heterodimer cleaves its intended DNA site

From patent US20110033935
